Laboratory results: patent US7387779B2, “Anti-angiogenic proteins and fragments and methods of use thereof” (Beth Israel Deaconess Medical Center, priority 1998, dated 2008)

System: C-PAE cells
Test: Endothelial cell proliferation, methylene blue staining
Assay type: cell-based, bovine
Conditions: for inhibition of endothelial cell proliferation by synthetic peptides: 10 μg/ml; for EC50: equimolar comparison, read-out: ED50, anti-proliferative effect; for inhibition of proliferation of C-PAE cells: 15 μg/ml; for Relative Cell No. (%) C-PAE: 15 μg/ml recombinant protein; for inhibition of endothelial cell proliferation, comparison with anti-αvβ3 antibody: increasing equimolar amounts; for reduction of the number of cells: 10% FBS, 5 ng/ml bFGF, 3 ng/ml VEGF, 48 hours, 5 μg/ml and higher
Protocol: A methylene blue staining test was also done. 3,100 cells were added to each well and treated as above, and cells were then counted using the method of Oliver et al. (Oliver, M. H. et al., 1989, J. Cell. Science 92:513-18). All wells were washed one time with […] of 1×PBS and the cells were fixed by adding […] of 10% formalin in neutral-buffered saline (Sigma Chemical Co., St. Louis, Mo., USA) for 30 minutes at room temperature. After formalin removal cells were stained with a solution of 1% methylene blue (Sigma Chemical Co.) in 0.01 M borate buffer (pH 8.5) for 30 minutes at room temperature. After removal of staining solution, the wells were washed 5 times with […] of 0.01 M borate buffer (pH 8.5). Methylene blue was extracted from the cells with […] of 0.1N HCi/ethanol (1:1 mixture) for 1 hour at room temperature. The amount of methylene blue staining was measured on a microplate reader (BioRad, Hercules, Calif., USA) using light absorbance at 655 nm wavelength.
In the methylene-blue staining method, 7000 cells were plated into each well of a 96-well plate, and treated as described above. Cells were then counted using the method of Oliver et al. (1989, J. Cell. Sci. 92:513-8). After 48 hours of treatment, all wells were washed with 100 μl of PBS, and the cells fixed with 10% formalin in neutral-buffered saline (Sigma Chemical Co., St. Louis, Mo., USA). The cells were then stained with 1% methylene blue (Sigma) in 0.01M borate buffer, pH 8.5. Wells were washed with 0.01M borate buffer, and the methylene blue extracted from the cells with 0.1N HCl/ethanol, and the absorbance measured in a microplate reader (Bio-Rad, Hercules, Calif., USA) at 655 nm. Polymyxin B (Sigma) at a final concentration of 5 μg/ml was used to inactivate endotoxin (Liu, S. et al., 1997, Clin. Biochem. 30:455-63).
Proliferation of endothelial cells (C-PAE cells) and WM-164 melanoma cells was assayed by methylene blue staining, as described above in Examples 25 and 34. The results are shown in FIGS. 33A and 33B, which are a pair of graphs showing the effect of increasing concentration (x-axis) of Tumstatin, Tum-1, Tum-2, Tum-3 and Tum-4 on the relative number (y-axis) of C-PAE cells (FIG. 33A) and WM-164 cells (FIG. 33B). […] Tum-4, however, did have anti-proliferative activity in this cell line. […] Only Tum-4 inhibited WM-164 melanoma cells.
For the proliferation assay, Canstatin, Can-1 and Can-2 soluble proteins (0.1-20.0 μg/ml) were added to the growth medium of proliferating C-PAE cells, which were stimulated with 10% FBS in DMEM, in addition to 5 ng/ml bFGF and 3 ng/ml VEGF. The results are shown in FIG. 40, which is a graph showing the effect of increasing concentrations of Canstatin (♦), Can-1 (▪) and Can-2 (▴) (x-axis) on the relative cell number (y-axis) of C-PAE cells. Each concentration of each protein was tested in quadruplicate. Bovine serum albumin (BSA) was used as a control treatment. Polymyxin B was used to control for endotoxin interference, and no differences were found between assays run with and without polymyxin B added to the medium. Cells were allowed to proliferate for 48 hours, and were then fixed, stained and the density read with a Bio-Rad plate reader (Bio-Rad, Hercules, Calif., USA). Canstatin and Can-1 both caused dose-dependent decreases in the percent cell number, and both reduced the number of cells by 80% at concentrations of 5 μg/ml and higher.
An endothelial cell proliferation assay was used to compare the activity of Tumstatin and some of the deletion mutants. Recombinant Tumstatin (28 kDa), Tumstatin-44-131 (12 kDa) and T3 peptide were used in a methylene blue proliferation assay in equimolar concentrations.

| Molecule | EC50 | inhibition of proliferation of C-PAE cells | Relative Cell No. (%) C-PAE (20% FCS) | other results |
| --- | --- | --- | --- | --- |
| GLKGKRGDSGSPATWTTRGF [T1] |  |  |  | inhibition of endothelial cell proliferation by synthetic peptides (20% FCS): did not inhibit endothelial cell proliferation |
| LQRFTTMPFLFCNVNDVCNF [T3] | 2.5 µM |  |  | inhibition of endothelial cell proliferation by synthetic peptides (20% FCS): significantly (p<0.05) inhibit; fold less active than Tumstatin and Tumstatin-44-131 (equimolar concentrations / molar basis): 2.5 fold |
| Tumstatin-44-131: residues 44 to 131 of full-length Tumstatin (SEQ ID NO:33) (protein, Tumstatin-45-132 (amino acids 45-132 of SEQ ID NO10)) FSFLFVQGNQRAHGQDLGTLGSCLQRFTTMPFLFCNVNDVCNFASRNDYSYWLSTPALMPMNMAPITGRALEPYISRCTVCEGPAIAI | 1 µM |  |  | ED50, inhibition of proliferation (Pichia-expressed, 20% FCS): 5 µg/mL |
| Tumstatin: NC1 domain of the α3 chain of type IV collagen, residues 1-244 (SEQ ID NO:10) (protein, listed as Homo sapiens) GLKGKRGDSGSPATWTTRGFVFTRHSQTTAIPSCPEGTVPLYSGFSFLFVQGNQRAHGQDLGTLGSCLQRFTTMPFLFCNVNDVCNFASRNDYSYWLSTPALMPMNMAPITGRALEPYISRCTVCEGPAIAIAVHSQTTDIPPCPHGWISLWKGFSFIMFTSAGSEGTGQALASPGSCLEEFRASPFLECHGRGTCNYYSNSYSFWLASLNPERMFRKPIPSTVKAGELEKIISRCQVCMKKRH | 1 µM | 78.5% | 100.0 ± 3.2% | inhibition of endothelial cell proliferation, comparison with anti-αvβ3 antibody: dose-dependent inhibition |
| Tum-2: residues 1 to 132 of Tumstatin (SEQ ID NO:23) (protein, Tum-2 (amino acids 1-132 of SEQ ID NO10)) GLKGKRGDSGSPATWTTRGFVFTRHSQTTAIPSCPEGTVPLYSGFSFLFVQGNQRAHGQDLGTLGSCLQRFTTMPFLFCNVNDVCNFASRNDYSYWLSTPALMPMNMAPITGRALEPYISRCTVCEGPAIAI |  | 73.3% | 34.3 ± 3.9 % |  |
| Canstatin: NC1 domain of the α2 chain of Type IV collagen (SEQ ID NO:6) (protein, listed as Homo sapiens) VSIGYLLVKHSQTDQEPMCPVGMNKLWSGYSLLYFEGQEKAHNQDLGLAGSCLARFSTMPFLYCNPGDVCYYASRNDKSYWLSTTAPLPMMPVAEDEIKPYISRCSVCEAPAIAIAVHSQDVSIPHCPAGWRSLWIGYSFLMHTAAGDEGGGQSLVSPGSCLEDFRATPFIECNGGRGTCHYYANKYSFWLTTIPEQSFQGSPSADTLKAGLIRTHISRCQVCMKNL |  |  |  | reduction of the number of cells: 80%; treatment level at which dye uptake dropped off to the level seen in unstimulated cells (10% FCS): 0.625 to 1.25 µg/mL |
| Tum-4: residues 181 to 244 of Tumstatin (SEQ ID NO:25) (protein, Tum-4 (amino acids 181-244 of SEQ ID NO10)) EFRASPFLECHGRGTCNYYSNSYSFWLASLNPERMFRKPIPSTVKAGELEKIISRCQVCMKKRH |  | did not inhibit | 95.7 ± 3.6% |  |
| Tum-1: residues 54 to 244 of Tumstatin, lacking the N-terminal 53 amino acids (SEQ ID NO:22) (protein, Tum-1 (Tumstatin N-53) (amino acids 54-244 of SEQ ID NO10)) QRAHGQDLGTLGSCLQRFTTMPFLFCNVNDVCNFASRNDYSYWLSTPALMPMNMAPITGRALEPYISRCTVCEGPAIAIAVHSQTTDIPPCPHGWISLWKGFSFIMFTSAGSEGTGQALASPGSCLEEFRASPFLECHGRGTCNYYSNSYSFWLASLNPERMFRKPIPSTVKAGELEKIISRCQVCMKKRH |  | 65.6% | 20.5 ± 3.4 % |  |
| Can-1: N-terminal 114 amino acids of full-length Canstatin (protein, listed as Homo sapiens) VSIGYLLVKHSQTDQEPMCPVGMNKLWSGYSLLYFEGQEKAHNQDLGLAGSCLARFSTMPFLYCNPGDVCYYASRNDKSYWLSTTAPLPMMPVAEDEIKPYISRCSVCEAPAIA |  |  |  | reduction of the number of cells: 80% |
| endostatin: tumor associated angiogenesis inhibitor used as comparator (protein, UniProt P39060 1572-1754, looked up, Endostatin) Endostatin: HSHRDFQPVLHLVALNSPLSGGMRGIRGADFQCFQQARAVGLAGTFRAFLSSRLQDLYSIVRRADRAAVPIVNLKDELLFPSWEALFSGSEGPLKPGARIFSFDGKDVLRHPTWPQKSVWHGSDPNGRRLTESYCETWRTEAPSATGQASSLLGGRLLGQSAASCHHAYIVLCIENSFMTASK |  |  |  | inhibition of endothelial cell proliferation, comparison with anti-αvβ3 antibody: dose-dependent inhibition |
